Results on one protein are retold here after patent US20170291958.

The data set addresses Flag-KRAS.

B1: Flag-PIASγ (protein)
chain: MAAELVEAKNMVMSFRVSDLQMLLGFVGRSKSGLKHELVTRALQLVQFDCSPELFKKIKELYETRYAKKNSEPAPQPHRPLDPLTMHSTYDRAGAVPRTPLAGPNIDYPVLYGKYLNGLGRLPAKTLKPEVRLVKLPFFNMLDELLKPTELVPQNNEKLQESPCIFALTPRQVELIRNSRELQPGVKAVQVVLRICYSDTSCPQEDQYPPNIAVKVNHSYCSVPGYYPSNKPGVEPKRPCRPINLTHLMYLSSATNRITVTWGNYGKSYSVALYLVRQLTSSELLQRLKTIGVKHPELCKALVKEKLRLDPDSEIATTGVRVSLICPLVKMRLSVPCRAETCAHLQCFDAVFYLQMNEKKPTWMCPVCDKPAPYDQLIIDGLLSKILSECEDADEIEYLVDGSWCPIRAEKERSCSPQGAILVLGPSDANGLLPAPSVNGSGALGSTGGGGPVGSMENGKPGADVVDLTLDSSSSSEDEEEEEEEEEDEDEEGPRPKRRCPFQKGLVPAC
For B1, the “KRAS sumoylation (HA-SUMO3 blot of Flag immunoprecipitates)” value is “Expression of PIASγ enhanced KRAS sumoylation, which was further stimulated by expression of UBC9 (FIG. 3D)”.
